{"source": "the nanobody polyreactivity screen of Harvey et al. (2022)"}
{"assay": "yeast display, Sf9 membrane polyspecificity reagent, FACS + sequencing; frameworks hold sequencing errors", "procedure,_shortened": "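Genes from sorted yeast were amplified by colony PCR, read by MiSeq 2 × 250 sequencing and filtered on CDR length. These cells carried a synthetic nanobody library in Saccharomyces cerevisiae BJ5465 and were sorted by FACS into low and high (top ~1%) gates on anti-HA and streptavidin fluorescence. Polyreactivity is labelled according to the gate of origin.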"}
{"sequence": "QVQLVESGGGLVQAGGSLRLSCSASGFTFRSYAMGWYRQAPGEEREFVAAISRRGDSTYYADSVKGRFTISRDNAKNTVYLQMNSLKPEDTAVYYCAKYGIASRYSRFDSWGQGTQVTVSS", "polyreactivity (PSR sort gate)": "high polyreactivity"}
{"sequence": "QVQLVESGGGLVQAGGSLRLSCSASGFTFRTYAMGWYRQAPGKETELVAAISRDGSSTYYADSVKGRFTISRDNAKNTVYLQLKSLKPEDTAVYYCAARIIRFYTSADKLVTSRYYYWGQGTQVTVSS", "polyreactivity (PSR sort gate)": "high polyreactivity"}
{"sequence": "QVQLVESGGGLVQAGGSLRLSCSASGGIFSAYAMGWYRQSPGKERELVAAISRTGGSTYYADSVKGRFTISRDNAKNTVYLQMNSLKPEDTAVYYCNAVYRRYPEFDYWGQGTQVTVSS", "polyreactivity (PSR sort gate)": "high polyreactivity"}
{"sequence": "QVQLVESGGGLVQAGGSLRLSCSASGHIFRTYAMGWYRQAPWKERELVAGITPNGDTTYYADSVKGRFTISRDHAKITVYLQMNSLKPEDTAVYYCDAQYSQRPADRYNSWGQGTQVTVSS", "polyreactivity (PSR sort gate)": "low polyreactivity"}
{"sequence": "QVQLVESGGGLVQAGGSLRLSCSASGITFGTYAMGWYRQAPGKERELVASITYGGTNTYYADSVKGRFTISRDNAKNTVCLQMNSLKPEDTAVYYCNADPAVSRGSIATDDYDYWVQGTQVTVSS", "polyreactivity (PSR sort gate)": "low polyreactivity"}
{"sequence": "QVQLVESGGGLVQAGGSLRLSCSASGITFLANAMAWYRPATGKERELVATITSRGASSYYADSVKVRFTISRDNAKNTVYLQMNSLKPEDTAVYYCAATVRRRYERYNDWAQGTQVTVSS", "polyreactivity (PSR sort gate)": "high polyreactivity"}
{"sequence": "QVQLVESGGGLVQAGGSLRLSCSASGITFNANAMGWYRQATGKERELVAAISLSGGRTYYADSVKGRFTISRDNAKNTVYLQMNSLKPEDTAVYYCKVLGNYYGKFDYWGQGTQVTVSS", "polyreactivity (PSR sort gate)": "high polyreactivity"}
{"sequence": "QVQLVESGGGLVQAGGSLRLSCSASGITFWYNAMEWYRQAPGKERELVAAISRSAGSTYYADSVKGRFTISRDNAKNTVYLQMNSLKPEDTAVYYCAAKTPGRYYYWGQGTQVTVSS", "polyreactivity (PSR sort gate)": "high polyreactivity"}
{"sequence": "QVQLVESGGGLVQAGGSLRLSCSASGLTLKRYAMGWYRQAPGQERELVAAISKSGGSTYYADSVKGRFTISRDNAKNTVYLQMNSLKPEDTAVYYCAADSYNLWDDYWGQGTQVTVSS", "polyreactivity (PSR sort gate)": "low polyreactivity"}
{"sequence": "QVQLVESGGGLVQAGGSLRLSCSASGRIFRYNGKGWYRQAHGKERELVAVITHRSGTTSYADSVKGRFTISRDNAKNTVYLQMNSLKPEDTAVYYCARGYYKPSVGKSKRVGGNYLGQGTQVTVSS", "polyreactivity (PSR sort gate)": "high polyreactivity"}
{"sequence": "QVQLVESGGGLVQAGGSLRLSCSASGRTFVRNAMGWYRQAPGKERELVAAISSIGDSTYYADSVKGRFTISRDNAKNTVYLQMNSLKPEDTAVYYCNARGYVYYRMGYWGQGTQVTVSS", "polyreactivity (PSR sort gate)": "low polyreactivity"}
{"sequence": "QVQLVESGGGLVQAGGSLRLSCSASGSIFGSYAMGGYRQEPGNERELVAAISWRGGNTYYADSVKGRFTISRDNAKNTVYLQMNSLSPEDTAVYYCAAVAYSYGSYRRYYYWGLGTQVTVSS", "polyreactivity (PSR sort gate)": "high polyreactivity"}
{"sequence": "QVQLVESGGGLVQAGGSLRLSCSASGSIFPAYAMGWYRQAPGKERELVASITGSGGSTYYADSVKGRFTISRDNAKNTVYLQMNSLKPEDTAVYYCNARYYVYSATVDRYYHFYYCGQGTQVTVSS", "polyreactivity (PSR sort gate)": "high polyreactivity"}
{"sequence": "QVQLVESGGGLVQAGGSLRLSCSASGSIFSYYAMGWYRQAPGKERELVAAISRSGGSTYYADSVKGRFTISRDNAKNTVYLQMNSLKPEDTAVYYCAATRIHYPSYDYWGQGTQVTVSS", "polyreactivity (PSR sort gate)": "high polyreactivity"}
{"sequence": "QVQLVESGGGLVQAGGSLRLSCSASGSIFVGYAIGWYRQAPVKEMELDASISSGDDTYADSVKGRFTISRDNAKNSVYLQMNSLKPEDTAVYYCAKDSISVDCAYDYWVQGTQVTVSS", "polyreactivity (PSR sort gate)": "low polyreactivity"}
{"sequence": "QVQLVESGGGLVQAGGSLRLSCSASGSTFDGNAMVWYRQAPGKERELVAAITQRASNTYYADSVKGRFTISRDNAKNTVYLQMNSLKPEDTAVYYCNADFYVTSAEFYYWGQGSQVTVSS", "polyreactivity (PSR sort gate)": "low polyreactivity"}
